Measurements reported in article PMC10967448, “ApoE Mimetic Peptide COG1410 Kills Mycobacterium smegmatis via Directly Interfering ClpC’s ATPase Activity” (Antibiotics, 2024).
Square brackets hold non-standard residues; d marks the D form. Ends that are not written are not given here. Aib = CC(C)(N)C(=O)O

Tests used:
ClpC (S437P) [1] = molecular target: ClpC (S437P) (M. smegmatis); experiment: cell-based or functional assay
[2] = molecular target: T1, ClpC (M. smegmatis AAA+ unfoldase, Clp-ATPase) (M. smegmatis); experiment: cell-based or functional assay
ClpC (S437P) [3] = molecular target: T2, ClpC (S437P) (M. smegmatis); experiment: SPR; Biacore 8K; ClpC or ClpC (S437P) amine-coupled on a CM5 chip at pH 4.0 (around 6500 RU); COG1410 flowed at 125 to 2000 nM (2-fold dilutions); PBS pH 7.4, 0.05% tween-20, 25 °C, 30 μL/min; 1:1 Langmuir binding model; conditions: both partners purified
T2 construct: also called ClpC variant; ClpC (S437P) variant; source: E. coli BL21 (DE3), pET28a, purified (IMAC on Ni Sepharose 6 FF, desalting)

[4] = molecular target: T1, ClpC (M. smegmatis AAA+ unfoldase, …); experiment: as above; conditions: both partners purified

Q: With AS[Aib]LRKL[Aib]KRLL (not fully specified (N-terminus, C-terminus)) [COG1410] as the binder, how does the “ATPase activity of purified ClpC (S437P) (64 nM) with 10 μM COG1410 against ClpC alone” value (ClpC (S437P) [1]) read?
A: ~7.4 fold

Q: And the “proteolytic activity on FITC-casein in the S437PP1P2 system with COG1410 against the control with ClpC alone” value (ClpC (S437P) [1])?
A: ~7 fold

Q: And the “ATPase activity of purified ClpC (64 nM) with COG1410, dose series; at 10 μM COG1410 against ClpC alone” value [2]?
A: ~3 fold

Q: And the “proteolytic activity on FITC-casein in the ClpCP1P2 system with 10 μM COG1410” value [2]?
A: 4 fold

Q: And the Kd (ClpC (S437P) [3])?
A: 1310 nM

Q: What about the koff (ClpC (S437P) [3]) of the same binder?
A: 0.0119 s⁻¹

Q: What about the kon (ClpC (S437P) [3]) of the same binder?
A: 9900 M⁻¹ s⁻¹

Q: What about the Kd [4] of the same binder?
A: 2030 nM

Q: What about the koff [4] of the same binder?
A: 0.0117 s⁻¹

Q: And the kon [4]?
A: 5780 M⁻¹ s⁻¹
